Data as given in publication PMC12489471, “A multi-dentate, cooperative interaction between endo- and exo-ribonucleases within the bacterial RNA degradosome” (Nucleic Acids Research, 2025).

B1: E. coli PNPase core (domain or fragment, UniProt P05055 1-552, looked up)
chain: MLNPIVRKFQYGQHTVTLETGMMARQATAAVMVSMDDTAVFVTVVGQKKAKPGQDFFPLTVNYQERTYAAGRIPGSFFRREGRPSEGETLIARLIDRPIRPLFPEGFVNEVQVIATVVSVNPQVNPDIVAMIGASAALSLSGIPFNGPIGAARVGYINDQYVLNPTQDELKESKLDLVVAGTEAAVLMVESEAQLLSEDQMLGAVVFGHEQQQVVIQNINELVKEAGKPRWDWQPEPVNEALNARVAALAEARLSDAYRITDKQERYAQVDVIKSETIATLLAEDETLDENELGEILHAIEKNVVRSRVLAGEPRIDGREKDMIRGLDVRTGVLPRTHGSALFTRGETQALVTATLGTARDAQVLDELMGERTDTFLFHYNFPPYSVGETGMVGSPKRREIGHGRLAKRGVLAVMPDMDKFPYTVRVVSEITESNGSSSMASVCGASLALMDAGVPIKAAVAGIAMGLVKEGDNYVVLSDILGDEDHLGDMDFKVAGSRDGISALQMDIKIEGITKEIMQVALNQAKGARLHILGVMEQAINAPRGDISEFA
notes: polynucleotide phosphorylase (PNPase) core lacking the KH and S1 domains, E. coli, aa 1–552 by the methods (1–550 in the results and a legend); also called PNPase core (1–550); PNPase core (aa 1–552); source: E. coli Evo21(DE3), purified (Ni-NTA, intein cleavage, HIC, Q, Superdex 200); not shown: Mycobacterium xenopi GyrA intein, C-terminal, cleaved; His8, C-terminal, cleaved

Experiments:
[1] = target: S. enterica PNPase core (Salmonella enterica serovar Typhimurium) (UniProt Q8ZLT3); assay: cryo-EM structure; purified PNPase core and RNase E-muGFP-CHis mixed 1:2, complex separated on Superdex 200 Increase in 20 mM Tris–HCl pH 8.0, 25 mM MgCl2, 150 mM KCl, 1 mM TCEP; 8 mM CHAPSO; E. coli and S. enterica proteins
[2] = target: the molecule itself; assay: cryo-EM structure; PNPase core with RNase E peptide 960–1061; resolution of the peptide insufficient to align the sequence
E. coli PNPase core = target: B1; assay: cryo-EM structure; purified PNPase core and RNase E-muGFP-CHis mixed 1:2, complex separated on Superdex 200 Increase in 20 mM Tris–HCl pH 8.0, 25 mM MgCl2, 150 mM KCl, 1 mM TCEP; 8 mM CHAPSO; E. coli and S. enterica proteins; details: both partners purified
PNPase core = assay: Cryo-EM of E. coli PNPase core:RNase E complex; assay type: binding; details: 20 mM Tris–HCl pH 8.0, 25 mM MgCl2, 150 mM KCl, 1 mM TCEP
Experimental: The PNPase core encoding sequence from E. coli (aa 1–552), Salmonella enterica serovar Typhimurium (UniProt: Q8ZLT3) (aa 1–552), or Pseudomonas aeruginosa (strain PAO1, UniProt: Q9HV59) (aa 1–553) was amplified using corresponding genomic DNA as a template and cloned into pExp-Mxe-CHis expression vector. The protein of interest, produced as a fusion with C-terminal 8×His-tagged Mycobacterium xenopi GyrA intein, was expressed in Evo21(DE3) cells at 18°C overnight following induction with 0.4 mM IPTG. […] After cleavage, the protein buffer was exchanged using HiPrep 26/10 desalting column (Cytiva), and the protein solution was reapplied to Ni-NTA resin to remove His-tagged intein and uncleaved material. […]
Purified PNPase core and RNE-muGFP-CHis proteins were mixed in 1:2 ratio and their complex were separated on the Superdex 200 Increase 10/300 GL column (Cytiva) equilibrated with cryo-EM Buffer (20 mM Tris–HCl, pH 8.0, 25 mM MgCl2, 150 mM KCl, 1 mM TCEP). […] The samples were mixed with CHAPSO (3-([3-cholamidopropyl]dimethylammonio)-2-hydroxy-1-propanesulfonate) at a final concentration of 8 mM before being applied onto R2/2 Au Ultrafoil grids (Quantifoil) that had been pre-treated by glow-discharge (PELCO easiGLOW: 60 s, 25 mA, 0.39 mBar). […]

[3] = target: T1, PNPase carrying a C-terminal Hisx6 tag (E. coli polynucleotide phosphorylase) (E. coli, UniProt P05055 1-711); assay: SPR; PNPase with C-terminal His6 tag immobilised on Series S Sensor Chip NTA (5 RU); Biacore T200, 25°C; 20 mM HEPES pH 7.2, 150 mM NaCl, 5 mM MgCl2, 0.5 mM TCEP, 0.05% Tween 20; six peptide concentrations up to 9000 nM (up to 5000 nM for RNase E 985–1061); contact 60 s, dissociation 120 s; details: both partners purified
T1 construct: polynucleotide phosphorylase (PNPase), E. coli; Immobilised through the His tag on an NTA chip for SPR; also called PNPase C-His; PNPase with a 6xHisTag at the CTD; source: E. coli Evo21(DE3), purified (Ni-NTA, butyl-Sepharose HIC, Q, Superdex S200); not shown: His6, C-terminal, kept
T1 sequence (looked up): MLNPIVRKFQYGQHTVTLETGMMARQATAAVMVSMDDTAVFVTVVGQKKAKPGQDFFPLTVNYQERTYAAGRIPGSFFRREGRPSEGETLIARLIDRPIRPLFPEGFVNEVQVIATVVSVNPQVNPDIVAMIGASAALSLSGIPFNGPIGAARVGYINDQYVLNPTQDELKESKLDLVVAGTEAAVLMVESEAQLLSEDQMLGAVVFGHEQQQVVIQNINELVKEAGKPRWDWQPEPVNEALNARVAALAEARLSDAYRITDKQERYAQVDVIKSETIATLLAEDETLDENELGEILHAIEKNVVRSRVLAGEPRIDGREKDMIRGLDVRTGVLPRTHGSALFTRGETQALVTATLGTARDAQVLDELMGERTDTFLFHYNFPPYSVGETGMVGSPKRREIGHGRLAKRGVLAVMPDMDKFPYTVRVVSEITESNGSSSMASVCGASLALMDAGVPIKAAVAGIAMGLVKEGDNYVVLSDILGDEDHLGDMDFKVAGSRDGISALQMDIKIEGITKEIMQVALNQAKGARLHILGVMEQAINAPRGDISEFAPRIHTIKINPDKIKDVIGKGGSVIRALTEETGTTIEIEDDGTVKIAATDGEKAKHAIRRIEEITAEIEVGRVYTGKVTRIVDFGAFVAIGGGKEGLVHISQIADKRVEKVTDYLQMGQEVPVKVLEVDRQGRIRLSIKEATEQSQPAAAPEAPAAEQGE

[4] = target: T1, PNPase carrying a C-terminal Hisx6 tag …; assay: as above; details: both partners purified; remark: listed apart in the source
[5] = target: T2, PNPase carrying a C-terminal Hisx6 tag (E. coli polynucleotide phosphorylase) (E. coli, UniProt P05055 1-711); assay: SPR; details: both partners purified
T2 construct: Held on the NTA chip by its His tag in the SPR; also called PNPase C-His; PNPCHis; source: E. coli Evo21(DE3), purified (Ni-NTA, butyl-Sepharose, Q, SEC); not shown: His6, C-terminal, kept
T2 sequence (looked up): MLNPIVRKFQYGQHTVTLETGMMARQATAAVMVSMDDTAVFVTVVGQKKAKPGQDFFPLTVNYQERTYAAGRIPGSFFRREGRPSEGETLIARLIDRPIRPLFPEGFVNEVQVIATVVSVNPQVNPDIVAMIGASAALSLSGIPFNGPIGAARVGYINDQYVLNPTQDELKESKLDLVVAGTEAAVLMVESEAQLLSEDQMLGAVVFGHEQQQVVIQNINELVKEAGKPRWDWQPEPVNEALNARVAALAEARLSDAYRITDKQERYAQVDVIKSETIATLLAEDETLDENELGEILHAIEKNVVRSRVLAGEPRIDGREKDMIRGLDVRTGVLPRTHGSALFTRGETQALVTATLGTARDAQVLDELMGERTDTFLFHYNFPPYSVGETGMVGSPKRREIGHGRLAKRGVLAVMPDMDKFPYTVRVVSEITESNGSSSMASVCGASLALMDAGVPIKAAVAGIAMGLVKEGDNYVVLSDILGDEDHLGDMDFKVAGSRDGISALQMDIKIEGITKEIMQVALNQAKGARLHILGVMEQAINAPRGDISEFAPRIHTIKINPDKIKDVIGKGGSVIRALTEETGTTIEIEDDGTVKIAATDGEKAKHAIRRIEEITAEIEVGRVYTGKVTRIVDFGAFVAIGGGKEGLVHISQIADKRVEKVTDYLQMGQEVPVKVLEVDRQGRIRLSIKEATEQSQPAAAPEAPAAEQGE

Molecule: S. enterica RNase E 921–1067-muGFP (domain or fragment)
- stoichiometry N (RNase E peptide per PNPase trimer) [1]: 1

Molecule: B1
- stoichiometry N [2]: 3

B2: E. coli RNase E 921–1061-muGFP (domain or fragment, UniProt P21513 921-1061, looked up)
chain: AVTEQPQVITESDVAVAQEVAEQAEPVVEPQEETADIEEVVETAEVVVAEPEVVAQPAAPVVAEVAAEVETVAAVEPEVTVEHNHATAPMTRAPAPEYVPEAPRHSDWQRPTFAFEGKGAAGGHTATHHASAAPARPQPVE
notes: Only residues 1003–1057 are built in the model; also called RNase E-muGFP-Chis; RNE-muGFP-CHis; source: E. coli Evo21(DE3), purified (Ni-NTA, amylose, TEV, Q, Superdex 200); not shown: MBP, N-terminal, cleaved; muGFP, C-terminal, kept; His8, C-terminal, kept
- stoichiometry N (E. coli PNPase core): 1 RNase E peptide per PNPase trimer

B3: RNase E 921–1061-muGFP (protein, UniProt P21513 921-1061, looked up, fragment)
chain: AVTEQPQVITESDVAVAQEVAEQAEPVVEPQEETADIEEVVETAEVVVAEPEVVAQPAAPVVAEVAAEVETVAAVEPEVTVEHNHATAPMTRAPAPEYVPEAPRHSDWQRPTFAFEGKGAAGGHTATHHASAAPARPQPVE
modifications: muGFP fusion
- binding mode / stoichiometry with E. coli PNPase core (PNPase core): only one RNase E peptide engages with a PNPase trimer, interacting with two protomers

B4: RNase E 985-1053 (domain or fragment, E. coli, UniProt P21513 985-1053, looked up)
chain: VAAEVETVAAVEPEVTVEHNHATAPMTRAPAPEYVPEAPRHSDWQRPTFAFEGKGAAGGHTATHHASAA
notes: the SPR methods name a peptide 960–1053; Lacks the terminal Pro-rich motif; Limits differ between results (985–1053) and methods (960–1053); also called RNase E peptide 985–1053; RNase E 960–1053 (methods); source: E. coli Evo21(DE3), pMxe vector, purified (Ni-NTA, amylose, TEV, Q, Superdex 75); not shown: His6, N-terminal, cleaved; MBP, N-terminal, cleaved; intein, C-terminal, cleaved
- Kd [3]: 100 µM
- Kd [4]: 11.5 µM
- koff [4]: 0.339 s⁻¹
- kon [4]: 29400 M⁻¹ s⁻¹

B5: RNase E 960 – 1061 R1056A (domain or fragment, E. coli, UniProt P21513 960-1061, looked up)
chain: VVETAEVVVAEPEVVAQPAAPVVAEVAAEVETVAAVEPEVTVEHNHATAPMTRAPAPEYVPEAPRHSDWQRPTFAFEGKGAAGGHTATHHASAAPAAPQPVE
notes: source: E. coli Evo21(DE3), purified (Ni-NTA, amylose, TEV cleavage, Q, SEC); not shown: His6, N-terminal, cleaved; MBP, N-terminal, cleaved; intein, C-terminal, cleaved
- kon [5]: 150000 M⁻¹ s⁻¹
